What was measured:
[1] = tested on: NCI-H446 human cancer cell line; experiment: Cytotoxic activity (cell proliferation inhibition rate, xCELLigence) with human PBMCs; format: cell-based; settings: human PBMCs as effector cells; NCI-H446 target cells; 72 hours
Protocol: Using a syringe preloaded with 100 μL of 1,000 units/mL heparin solution (Novo Heparin for injection, 5000 units, Novo Nordisk), 50 mL of peripheral blood was collected from each healthy volunteer (adult individual). This peripheral blood was diluted two-fold in PBS(−), divided into four aliquots, and added into a Leucosep tube for lymphocyte separation (Cat. No. 227290, Greiner Bio-One) that had been loaded with 15 mL of Ficoll-Paque PLUS and subjected to centrifugation in advance. This separation tube was centrifuged (at 2150 rpm for ten minutes at room temperature), and then the mononuclear cell fraction was collected. The cells in the mononuclear cell fraction were washed once with the Dulbecco's Modified Eagle's Medium containing 10% FBS (manufactured by SIGMA, hereinafter referred to as 10% FBS/D-MEM), and then prepared to have a cell density of 4×10^6 cells/mL using 10% FBS/D-MEM. The cell suspension prepared this way was used as the human PBMC solution in the experiment below.
Cytotoxic activity was assessed by the rate of cell proliferation inhibition using the xCELLigence Real-Time Cell Analyzer (Roche Diagnostics). […]
Cytotoxic activity was measured by the method described in Reference Example 1-3-2.
CDR and FR were determined according to the Kabat definition (Kabat numbering). […]

[2] = biological target: human GPC3 (Homo sapiens, UniProt P51654); experiment: Affinity for human GPC3 by surface plasmon resonance (Biacore T200); format: binding
Protocol: The activity to bind human GPC3 when using GL4 (SEQ ID NO: 41) and L0000 (SEQ ID NO: 53) as the L-chain variable regions was evaluated. This was performed using the molecular form of a single-arm antibody having a single Fab at the Fc region of a human IgG1 heterodimerized by the knobs-into-hole technique. H0000 (SEQ ID NO: 40) was used for the anti-GPC3 antibody H-chain variable region.
The affinity and binding rate constants of an anti-GPC3 antibody for an antigen were measured by the multi-cycle kinetics method of a surface plasmon resonance assay using Biacore™-T200 (GE Healthcare Japan). HBS-EP+(GE Healthcare Japan) was used for the running buffer, and an amine coupling kit (GE Healthcare Japan) was used to covalently bind Protein A/G to the CM5 chip (carboxymethyl dextran-coated chip). Each anti-GPC3 antibody was prepared so that approximately 100 RU will be captured by Protein A/G. Human GPC3 used as the analyte was prepared at 8, 16, 32, 64, and 128 nM using HBS-EP+. Measurements were carried out by first allowing Protein A/G to capture the antibody solution, and then injecting the human GPC3 solution at a flow rate of […] for three minutes to allow reaction to take place. Then, the solution was switched to HBS-EP+ and the dissociation phase was measured for 15 minutes. After completion of the dissociation phase measurement, the sensor chip was regenerated by washing with 10 mM Gly-HCl at pH 1.5. Measurement at the concentration of 0 was similarly carried out by allowing Protein A/G to capture the antibody solution, performing a three-minute HBS-EP+ injection to allow reaction to take place, and then switching to HBS-EP+ to measure the dissociation phase for 15 minutes. […]
CDR and FR were determined according to the Kabat definition (Kabat numbering).
First, point mutations were introduced into CDR1, CDR2, and CDR3 of the anti-human GPC3 bispecific antibody sequence produced in Reference Example 2, H0000-ERY27_HK (SEQ ID NO: 54), to prepare modified antibodies. Next, the affinity of these modified antibodies for soluble human GPC3 was determined.

[3] = single-arm antibody, multi-cycle kinetics

Sequence of human GPC3 (P51654 25-563 limits assumed): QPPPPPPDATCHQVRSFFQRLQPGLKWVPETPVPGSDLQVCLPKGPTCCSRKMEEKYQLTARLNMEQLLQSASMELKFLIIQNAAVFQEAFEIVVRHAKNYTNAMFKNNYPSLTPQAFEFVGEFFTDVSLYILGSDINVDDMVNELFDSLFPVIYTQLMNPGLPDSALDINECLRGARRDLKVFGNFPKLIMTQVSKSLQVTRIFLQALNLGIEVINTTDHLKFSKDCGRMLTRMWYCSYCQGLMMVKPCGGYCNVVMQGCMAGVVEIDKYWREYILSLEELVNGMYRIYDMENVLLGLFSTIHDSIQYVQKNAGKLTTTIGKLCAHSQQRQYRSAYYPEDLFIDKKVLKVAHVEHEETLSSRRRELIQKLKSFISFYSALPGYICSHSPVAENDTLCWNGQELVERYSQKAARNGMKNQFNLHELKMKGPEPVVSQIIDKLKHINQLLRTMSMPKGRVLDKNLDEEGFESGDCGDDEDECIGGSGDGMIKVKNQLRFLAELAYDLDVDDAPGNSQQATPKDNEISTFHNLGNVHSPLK

B1: GPC3_ERY22_rCE115: heterodimeric bispecific antibody of GL4-ERY22_Hk, H0000-ERY22_L, rCE115H-ERY22_Hh, rCE115L-k0 (SEQ ID NOs: 47-50) (antibody)
heavy 1: DIVMTQSPLSLPVTPGEPASISCRSSQSLVHSNRNTYLHWYQQKPGQAPRLLIYKVSNRFSGVPDRFSGSGSGTDFTLKISRVEAEDVGVYYCSQNTHVPPTFGQGTKLEIKSSASTKGPSVFPLAPSSKSTSGGTAALGCLVKDYFPEPVTVSWNSGALTSGVHTFPAVLQSSGLYSLSSVVTVPSSSLGTQTYICNVNHKPSNTKVDKKVEPKSCDKTHTCPPCPAPEAAGGPSVFLFPPKPKDTLMISRTPEVTCVVVDVSHEDPEVKFNWYVDGVEVHNAKTKPREEQYASTYRVVSVLTVLHQDWLNGKEYKCKVSNKALPAPIEKTISKAKGQPREPQVCTLPPSRDELTKNQVSLWCLVKGFYPSDIAVEWESNGQPENNYKTTPPVLDSDGSFFLYSKLTVDKSRWQQGNVFSCSVMHEALHNHYTQKSLSLSPHHHHHHHH
light 1: QVQLVQSGAEVKKPGASVKVSCKASGYTFTDYEMHWIRQPPGQGLEWIGAIDPKTGDTAYSQKFKGRVTLTADKSTSTAYMELSSLTSEDTAVYYCTRFYSYTYWGQGTLVTVSSASVAAPSVFIFPPSDEQLKSGTASVVCLLNNFYPREAKVQWKVDNALQSGNSQESVTEQDSKDSTYSLSSTLTLSKADYEKHKVYACEVTHQGLSSPVTKSFNRGEC
heavy 2: EVQLVETGGSLVQPGKSLKLTCATSGFTFSNAWMHWVRQSPEKQLEWVAQIKAKSNNYATYYAESVKGRFTISRDDSKSNIYLQMNSLKEEDTAVYYCRYVHYGAYYGVDAWGQGTSVTVSSASTKGPSVFPLAPSSKSTSGGTAALGCLVKDYFPEPVTVSWNSGALTSGVHTFPAVLQSSGLYSLSSVVTVPSSSLGTQTYICNVNHKPSNTKVDKKVEPKSCDKTHTCPPCPAPEAAGGPSVFLFPPKPKDTLMISRTPEVTCVVVDVSHEDPEVKFNWYVDGVEVHNAKTKPREEQYASTYRVVSVLTVLHQDWLNGKEYKCKVSNKALPAPIEKTISKAKGQPREPQVYTLPPSRCELTKNQVSLSCAVKGFYPSDIAVEWESNGQPENNYKTTPPVLDSDGSFFLVSKLTVDKSRWQQGNVFSCSVMHEALHNHYTQKSLSLSPDYKDDDDK
light 2: DVVMTQTPVSMSVSLGGQVSISCRSSQSLVHNNGNTYVSWYIQKPSQSPQLLIYKVSNRFSGISDRFSGSGSGTDFTLKISRVEPDDLGVYYCGQGTQDPYTFGAGTKLELKRTVAAPSVFIFPPSDEQLKSGTASVVCLLNNFYPREAKVQWKVDNALQSGNSQESVTEQDSKDSTYSLSSTLTLSKADYEKHKVYACEVTHQGLSSPVTKSFNRGEC
modifications: An artificially generated sequence
[1]
  cytotoxic activity (T-cell-dependent cellular cytotoxicity): very strong activity

B2: antibody-1: anti-human CD3ε chain and anti-human GPC3 bispecific antibody (antibody)
heavy: EVQLVETGGSLVQPGKSLKLTCATSGFTFSNAWMHWVRQSPEKQLEWVAQIKAKSNNYATYYAESVKGRFTISRDDSKSNIYLQMNSLKEEDTAVYYCRYVHYGAYYGVDAWGQGTSVTVSSASTKGPSVFPLAPSSKSTSGGTAALGCLVKDYFPEPVTVSWNSGALTSGVHTFPAVLQSSGLYSLSSVVTVPSSSLGTQTYICNVNHKPSNTKVDKKVEPKSCDKTHTCPPCPAPEAAGGPSVFLFPPKPKDTLMISRTPEVTCVVVDVSHEDPEVKFNWYVDGVEVHNAKTKPREEQYASTYRVVSVLTVLHQDWLNGKEYKCKVSNKALPAPIEKTISKAKGQPREPQVYTLPPSRCELTKNQVSLSCAVKGFYPSDIAVEWESNGQPENNYKTTPPVLDSDGSFFLVSKLTVDKSRWQQGNVFSCSVMHEALHNHYTQKSLSLSPDYKDDDDK
light: DVVMTQTPVSMSVSLGGQVSISCRSSQSLVHNNGNTYVSWYIQKPSQSPQLLIYKVSNRFSGISDRFSGSGSGTDFTLKISRVEPDDLGVYYCGQGTQDPYTFGAGTKLELKRTVAAPSVFIFPPSDEQLKSGTASVVCLLNNFYPREAKVQWKVDNALQSGNSQESVTEQDSKDSTYSLSSTLTLSKADYEKHKVYACEVTHQGLSSPVTKSFNRGEC
chain 1: DIVMTQSPLSLPVTPGEPASISCRSSQSLVHSNRNTYLHWYQQKPGQAPRLLIYKVSNRFSGVPDRFSGSGSGTDFTLKISRVEAEDVGVYYCSQNTHVPPTFGQGTKLEIKSSASTKGPSVFPLAPSSKSTSGGTAALGCLVKDYFPEPVTVSWNSGALTSGVHTFPAVLQSSGLYSLSSVVTVPSSSLGTQTYICNVNHKPSNTKVDKKVEPKSCDKTHTCPPCPAPEAAGGPSVFLFPPKPKDTLMISRTPEVTCVVVDVSHEDPEVKFNWYVDGVEVHNAKTKPREEQYASTYRVVSVLTVLHQDWLNGKEYKCKVSNKALPAPIEKTISKAKGQPREPQVCTLPPSRDELTKNQVSLWCLVKGFYPSDIAVEWESNGQPENNYKTTPPVLDSDGSFFLYSKLTVDKSRWQQGNVFSCSVMHEALHNHYTQKSLSLSPHHHHHHHH
chain 2: QVQLVQSGAEVKKPGASVKVSCKASGYTFTDYEMHWIRQPPGQGLEWIGAIDPKTGDTAYSQKFKGRVTLTADKSTSTAYMELSSLTSEDTAVYYCTRFYSYTYWGQGTLVTVSSASVAAPSVFIFPPSDEQLKSGTASVVCLLNNFYPREAKVQWKVDNALQSGNSQESVTEQDSKDSTYSLSSTLTLSKADYEKHKVYACEVTHQGLSSPVTKSFNRGEC
[2]; soluble human GPC3, Table 13
  Kd: 4.57 nM

B3: H0000/GL4: single-arm anti-GPC3 antibody, H0000 (SEQ ID NO: 40) with GL4 (SEQ ID NO: 41) (antibody, V domains shown)
VH: QVQLVQSGAEVKKPGASVKVSCKASGYTFTDYEMHWIRQPPGQGLEWIGAIDPKTGDTAYSQKFKGRVTLTADKSTSTAYMELSSLTSEDTAVYYCTRFYSYTYWGQGTLVTVSS
VL: DIVMTQSPLSLPVTPGEPASISCRSSQSLVHSNRNTYLHWYQQKPGQAPRLLIYKVSNRFSGVPDRFSGSGSGTDFTLKISRVEAEDVGVYYCSQNTHVPPTFGQGTKLEIK
modifications: An artificially generated sequence
[2]; [3]
  Affinity for human GPC3 ka: 430000 M⁻¹ s⁻¹
  Affinity for human GPC3 kd: 0.0018 s⁻¹

From patent US20250066503A1, “CELL INJURY INDUCING THERAPEUTIC DRUG FOR USE IN CANCER THERAPY” (CHUGAI SEIYAKU KABUSHIKI KAISHA, priority 2016, published 2025)
